The record followed here is US20170362329A1 (PELICAN THERAPEUTICS, published 2017).

The target of assay [1] is human TNFRSF25 (expressed on P815 cells) (human) (UniProt Q93038). The assay can be described thus: cell-based or functional assay.
The target of assay [2] is human TNFRSF25 (expressed on P815 cells) (human), Q93038. The assay can be described thus: cell-based or functional assay.
Assay [3] deals with T1, WBP330.hProl.ECD.hF (human, UniProt Q93038 25-199).
T1 construct: extracellular domain; also called human TNFRSF25 (SPR ligand)
T1 sequence (looked up): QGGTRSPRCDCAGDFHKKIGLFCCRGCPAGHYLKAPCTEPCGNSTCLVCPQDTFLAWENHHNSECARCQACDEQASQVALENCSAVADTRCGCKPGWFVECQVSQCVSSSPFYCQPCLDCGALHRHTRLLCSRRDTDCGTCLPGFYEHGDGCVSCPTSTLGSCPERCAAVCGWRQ
Description: SPR (ProteOn), TNFRSF25 ECD fusion as ligand, antibody as analyte, bivalent analyte model. As for the experimental part:
Affinity of the indicated humanized TNFRSF25 antibodies was determined by surface plasmon resonance (SPR) using the ProteOn method (FIG. 7 and TABLE 3).

Assay [4] deals with T2, human TNFRSF25-Fc (human, UniProt Q93038 25-199, limits assumed).
T2 construct: also called human TNFRSF25 fusion protein; not shown: Fc part
T2 sequence (looked up): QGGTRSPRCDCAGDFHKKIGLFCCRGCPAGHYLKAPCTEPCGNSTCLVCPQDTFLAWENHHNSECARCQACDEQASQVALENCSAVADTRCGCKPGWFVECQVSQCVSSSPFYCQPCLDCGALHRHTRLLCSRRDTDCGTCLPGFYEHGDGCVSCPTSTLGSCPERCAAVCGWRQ
The assay can be described thus: ELISA, binding of PTX-25 to human TNFRSF25-Fc, OD 450 nm. In general terms: In an ELISA, binding on a coated surface is turned into a signal by an enzyme label.

Assay [5] addresses human TNFRSF25 (expressed on P815 cells) (human) (UniProt Q93038). Description: flow cytometry on P815 cells expressing human TNFRSF25 (mean fluorescence intensity). On the technique in general: Flow cytometry measures light scatter and fluorescence of single cells or particles in a stream.
Assay [6] has the same target. The assay can be described thus: cell-based or functional assay. The source holds these as a separate data set.
The target is the same in assay [7]. Description: flow cytometry on P815 cells expressing human TNFRSF25.

Like-named read-outs stand apart in the source and are kept apart here.

The molecule “hTL1A-hFc chimera (from UniProt O95150 72-251) (Fc fusion)” yielded an EC50 of induced caspase activity in assay [1] of 0.283 µg/mL.

B1: WBP330.cAb1.hIgG1 (35783) (antibody, V domains shown)
VH: EVQLVESGGGLSQPGNSLQLSCEASGFTFSNHDLNWVRQAPGKGLEWVAYISSASGLISYADAVRGRFTISRDNAKNSLFLQMNNLKSEDTAMYYCARDPPYSGLYALDFWGQGTQVTVSS
VL: QPVLTQSPSASASLSGSVKLTCTLSSELSSYTIVWYQQRPDKAPKYVMYLKSDGSHSKGDGIPDRFSGSSSGAHRYLSISNVQSEDDATYFCGAGYTLAGQYGWVFGSGTKVTVL
notes: also called cAb1 (35783); chimeric antibody
In assay [2], B1 yielded an EC50 (nM), caspase activation in P815 cells expressing human TNFRSF25 of 71.4 nM and an EC50 of induced caspase activity of 0.121 µg/mL. In assay [3], the Kd is 58.1 nM; the off-rate (koff) (as a rule, a measure of how fast the partners let go of each other) turned out to be 0.00576 s⁻¹; the kon (usually the second-order rate constant of association) worked out at 99000 M⁻¹ s⁻¹.

B2: PTX-25 (human TNFRSF25-specific monoclonal antibody, pre-humanized parental) (antibody, V domains shown)
VH: EVQLVESGGGLSQPGNSLQLSCEASGFTFSNHDLNWVRQAPGKGLEWVAYISSASGLISYADAVRGRFTISRDNAKNSLFLQMNNLKSEDTAMYYCARDPPYSGLYALDFWGQGTQVTVSS
VL: QPVLTQSPSASASLSGSVKLTCTLSSELSSYTIVWYQQRPDKAPKYVMYLKSDGSHSKGDGIPDRFSGSSSGAHRYLSISNVQSEDDATYFCGAGYTLAGQYGWVFGSGTKVTVL
notes: also called Pre-humanized Parental PTX-25; human TNFRSF25-specific mAb
B2: in assay [4], the EC50 (read off the curve) (in general, the concentration needed to bring the measured effect to its halfway point) is roughly 0.04 µg/mL and the half-maximal inhibitory concentration (IC50) (as a rule, the concentration that inhibits the measured activity by half) was 5.17 nM.

B3: WBP330BMK1 (antibody, V domains shown)
VH: EVQLVESGGGLSQPGNSLQLSCEASGFTFSNHDLNWVRQAPGKGLEWVAYISSASGLISYADAVRGRFTISRDNAKNSLFLQMNNLKSEDTAMYYCARDPPYSGLYALDFWGQGTQVTVSS
VL: QPVLTQSPSASASLSGSVKLTCTLSSELSSYTIVWYQQRPDKAPKYVMYLKSDGSHSKGDGIPDRFSGSSSGAHRYLSISNVQSEDDATYFCGAGYTLAGQYGWVFGSGTKVTVL
As for B3, in assay [3], the Kd stood at 254 nM, the koff was 0.0252 s⁻¹ and the on-rate (kon) worked out at 99000 M⁻¹ s⁻¹. The Bmax in assay [5] came to 246. In assay [6], this molecule registered an EC50 (nM), caspase activation in P815 cells expressing human TNFRSF25 of 19.6 nM and an EC50 of induced caspase activity of 0.0192 µg/mL. Also, the Kd in assay [7] came out at 73.5 nM.
